# Laboratory results as given in US7960548B2, “Keratinocyte growth factor receptor—tyrosine specific inhibitors for the prevention of cancer metastatis” (The Ohio State University Research Foundation, priority 2005, dated 2011).
# B1: KGF: recombinant human Keratinocyte Growth Factor, member of the fibroblast growth factor family (FGF-7) (protein, UniProt P21781 32-194, looked up)
# Fibroblast growth factor 7: CNDMTPEQMATNVNCSSPERHTRSYDYMEGGDIRVRRLFCRTQWYLRIDKRGKVKGTQEMKNNYNIMEIRTVAVGIVAIKGVESEFYLAMNKEGKLYAKKECNEDCNFKELILENHYNTYASAKWTHNGGEMFVALNQKGIPVRGKKTKKEQKTAHFLPMAIT
# Tests used:
# [1] = tested on: MCF-7 cells; assay: KGF-mediated motility of MCF-7 cells with TK signaling pathway inhibitors; assay type: cell-based, human
# Description: (§1) In order to define the signaling pathway involved in the KGF-mediated breast cancer cell motility, we have examined the influence of inhibitors of intermediates in the TK signaling pathway (29, 30, 31). […] In addition, inhibition of Grb2, using a specific Grb2 antisense oligonucleotide, abolished KGF-mediated motility of MCF-7 cells (30, 31). […] Thus, we have observed that the KGFR-Erk1,2 pathway mediates KGF-induced cell motility in ER-positive breast cancer cells. Accordingly, inhibitors targeting the KGF/KGFR/Grb2/Erk1,2 pathway have the potential to be selective therapeutic or chemopreventive modalities against breast cancer metastasis. […] Thus we next considered the design of selective KGFR TK inhibitors to be examined in this study.
# [2] = tested on: MCF-7 human cancer cells; assay: Motility effect of KGF by time-lapse videomicroscopy and culture wounding; assay type: cell-based
# Description: Based on this background information, we examined the motility effect of KGF on human breast cancer cells using time-lapse videomicroscopy and culture wounding (22, 23). […] The KGF motility effect is characterized by a rapid increase in ruffling of the plasma membrane and cell scattering. […] Scanning electron microscopy of KGF-treated MCF-7 cells confirmed dramatic changes in cell morphology consistent with active cell motility (FIG. 1). […] Changes in cell morphology, associated with membrane ruffling and motility are believed to be associated with cytoskeletal reorganization and necessary for adhesion foci, cell surface ligand-receptor binding and regulation of gene transduction (24, 25). Accordingly, we have previously observed a significant alteration in the distribution of f-actin in the cytoplasm of KGF stimulated MCF-7 cells (22).
# [3] = tested on: MCF-7, T-47D, ZR-75-1; assay: KGF motility response of ER-positive human breast cancer cell lines; assay type: cell-based; settings: KGF 10-50 ng/ml
# Procedure: In our previous experiments, all of the estrogen receptor (ER)-positive human breast cancer cell lines examined (MCF-7, T-47D, ZR-75-1) responded to KGF treatment (10-50 ng/ml); however, the responsiveness differed substantially among the cell lines tested.
# [4] = tested on: MDA-MB-231, SK-BR-3, BT-20; assay: KGF motility response of ER-negative cell lines; assay type: cell-based, human; settings: KGF 10-50 ng/ml
# [5] = tested on: MCF-7 cells; assay: MCF-7 nude mouse xenograft model, growth and metastasis (β-gal reporter); assay type: in vivo, female nu/nu balb/C mice
# Procedure: In these experiments 5×10^6 viable MCF-7 cells, transfected with a β-gal reporter plasmid, were embedded into 0.2 ml Matrigel and implanted into female nude mice. Four animal/group were treated with either KGF (2.5 μg/kg) or control vehicle every other day. After 21 days of treatment the tumor, lung and liver tissue were removed and assayed for b-gal activity using a CRPG substrate for β-gal.
# In order to determine the influence of KGF on tumor growth and development in vivo, we recently examined the effect of KGF treatment on the growth and metastasis of MCF-7 cells in a nude mouse xenograft model (27, 28). In these experiments 5×10^6 viable MCF-7 cells, transfected with a β-gal reporter plasmid, were embedded into 0.2 ml Matrigel and implanted into female nu/nu balb/C mice at 6 weeks of age. At 40 days after tumor cell implantation, when approximately 0.5 cm tumor masses were observed, animal were treated with either human recombinant KGF or control vehicle by intra-tumoral injections every other day for a period of 21 days. […] In tumor and tissue samples, collected at the end of the treatment period, the β-gal activity was used as a reported to quantify MCF-7 cells as previously described (27). […] However, in the connective tissue surrounding the tumors and in the lung and liver tissue samples, the β-gal activity was much greater in the KGF treated than in the control samples (FIG. 2) (28). The results of the present study indicate that KGF enhances the migration of breast cancer cells away from the tumor mass, resulting in measurable lung and liver metastasis within the 21 day treatment period.
# [6] = tested on: phospho-Erk1,2; assay: Western blot of phospho-Erk1,2 in MCF-7 cells; assay type: cell-based, human; settings: 50 ng/ml KGF and/or inhibitor for 3 days
# Procedure: The cells were treated with 50 ng/ml KGF and/or signal transduction inhibitor for 3 days. Equal amounts of protein (10 μg) were loaded for SDS-PAGE analysis.
# as §1
molecule,measurement,setting,value
COc1cccc(-c2cc(=O)c3ccccc3o2)c1N [PD98059],KGF-mediated motility of MCF-7 cells,[1],completely abolished
O=c1c(-c2ccc(O)cc2)coc2cc(O)cc(O)c12 [genistein],KGF-mediated motility of MCF-7 cells,[1],completely abolished
B1,duration of change in morphology of MCF-7 cells,[2],at least 48 hours
same,motility effect on MCF-7 cells,[2],cell scattering motility effect
same,perimeter index (PI),[2],dose-related increase
same,time of maximal KGF motility effect,[2],one
same,"response to KGF treatment, ER-positive cell lines",[3],responded
same,"enhancement in motility, ER-negative cell lines",[4],little or no enhancement
same,"β-gal activity in connective tissue surrounding the tumors, lung and liver",[5]; end of 21 day treatment,much greater
same,β-gal activity in tumor tissue,[5]; end of 21 day treatment,significantly less than in the controls
same,tumor volume,"[5]; intra-tumoral injections every other day for 21 days, KGF 2.5 μg/kg",the same as in the control tumors
same,"phospho-Erk1,2 protein level",[6],increase
